The target in experiment [1] is T1, human IL-6 (human, UniProt P05231 30-212). As to the kind of experiment: cell-based or functional assay.
Experiment [2] concerns the target T1, human IL-6. As to the kind of experiment: SPR (SensiQ Pioneer), mAb captured on protein G, IL-6 as analyte (3×FLAG-IL-6 or IL-6 CYT-213, 1-100 nM), 25 C, 1:1 model. The protocol: Equilibrium constants for rabbit human chimeric mAbs were determined by binding the mAb to the protein G coated chip followed by binding of each analyte (IL-6 or IL-23) to its respective mAb. In order to minimize mass transfer effects, the surface densities of the mAbs for each analyte were adjusted so that as analyte binding approached saturation its corresponding RU fell between 200 and 300. […] For each binding and dissociation cycle the chip surface was regenerated with 15 uL of 20 mM NaOH (5671-02, Mallinckrodt Baker, Philliphsburg, N.J.). The assay temperature was maintained at 25° C. with an analyte flow rate of 50 μL/min and included a 2 minute association phase and 10-30 minute dissociation phase. The on/off rates (kₐ/kd) and dissociation constants (KD) were determined using the format described above along with pseudo-first-order 1:1 interaction model software (Qdat, ICx Nomadics, Stillwater, Okla.).

Experiment [3] has as its target T1, human IL-6. The experiment in a line: cell-based or functional assay. The source holds these as a separate data set.
In experiment [4] the target is T2, human dimeric IL-23 (eBiosciences 34-8239) (human, UniProt P29460 23-328; Q9NPF7 20-189).
T2 sequence (looked up) 1: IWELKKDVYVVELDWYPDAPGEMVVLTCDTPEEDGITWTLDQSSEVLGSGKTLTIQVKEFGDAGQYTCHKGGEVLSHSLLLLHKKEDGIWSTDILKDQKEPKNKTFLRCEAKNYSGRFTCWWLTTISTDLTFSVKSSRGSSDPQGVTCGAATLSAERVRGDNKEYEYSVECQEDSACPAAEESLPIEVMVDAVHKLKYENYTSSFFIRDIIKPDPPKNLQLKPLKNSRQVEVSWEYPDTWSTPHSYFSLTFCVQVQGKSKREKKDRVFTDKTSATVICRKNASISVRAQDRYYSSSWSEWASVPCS
T2 sequence (looked up) 2: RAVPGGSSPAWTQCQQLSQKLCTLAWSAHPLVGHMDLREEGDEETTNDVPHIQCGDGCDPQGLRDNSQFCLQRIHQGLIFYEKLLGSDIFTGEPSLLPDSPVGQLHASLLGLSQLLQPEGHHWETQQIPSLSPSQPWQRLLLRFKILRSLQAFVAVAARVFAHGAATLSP
As to the kind of experiment: cell-based or functional assay.

Experiment [5] deals with T3, 3×FLAG-IL-6 (human).
T3 construct: it may hold the pre-pro-trypsin leader
T3 sequence (chain, as listed by the source limits assumed): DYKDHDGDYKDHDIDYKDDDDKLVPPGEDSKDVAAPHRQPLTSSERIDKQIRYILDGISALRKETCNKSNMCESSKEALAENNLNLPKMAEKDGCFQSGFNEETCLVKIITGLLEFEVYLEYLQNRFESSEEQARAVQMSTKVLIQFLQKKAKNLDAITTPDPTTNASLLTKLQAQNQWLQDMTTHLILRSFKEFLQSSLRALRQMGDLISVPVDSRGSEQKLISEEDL
As to the kind of experiment: SPR, 3×FLAG-IL-6 captured by anti-FLAG M2 on protein G, scFv as analyte (1-100 nM).

Read-outs that look alike come from different tables or passages of the source.

For orientation: Kd means the constant that tells how readily two partners part at equilibrium. A word on the koff: it is the first-order rate constant of dissociation. A higher koff goes with fast dissociation. By kon is commonly meant the second-order rate constant of association. Low values mean slower complex formation, high ones faster complex formation.

B1: 9C8 chimeric mAb (antibody, V domains shown)
VH: QSVEESGGRLVTPGTPLTLTCTVSGIDLSSYDMSWVRQAPGKGLEWIGYIYTDSSTYYANWAKGRFTISKTSTTVDLKMTSLTTEDTATYFCAKGSTDYAFDTRLDLWGPGTLVTVS
VL: AYDMTQTPASVEVAMGGTVTIKCQASQSISNELSWYQQKPGQPPKLLIYRTSTLASGVSSRFKGSGSGTEYTLTISGVECADAATYYCQQGYNSNDVDNVFGGGTKVVVVR
notes: Rabbit/human chimeric IgG (human IgG1, kappa); HEK293; also called 9C8 clone
In the case of B1, the “EC50, inhibition of IL-6 induced B9 cell proliferation” value (from here on “EC50, inhibition”) in experiment [1] amounted to 0.4 ng/mL. In experiment [2], this molecule displayed a Kd of 42 pM, an off-rate constant (koff) of 3.17e-05 s⁻¹ and a kon of 765000 M⁻¹ s⁻¹.

B2: 8C8 rabbit scFv (scFv, V domains shown)
VH: QSVEESGGRLVAPGGSLTLTCKASGFSLSSSGVSWVRQAPGKGLEWIGYVSIADTISYANWAKGRFTISKTSSTTVDLEMTSLTTEDTATYFCVRGFITYSGVLWGPGTLVTVSS
VL: QVLTQTPASVSAAVGGTVTISCQSSQNVYSNAFLSWYQQKPGQPPKLLIYKASKLASGVPSRFSGSGSGTQFTLTISGVQCDDAATYYCAGEYEGGIGTFGGGTEVVVVR
For the molecule B2, in experiment [3], the “EC50, inhibition” value was 0.51 ng/mL.

B3: 28D2 chimeric mAb (antibody, V domains shown)
VH: QSLGESGGRLVTPGTPLTLTCTVSGLSLSKNAIAWVRQAPGKGLEWIGIIYAGGATTYASWAKGRFTISKSSTTVDLKITSPTTVDTATYFCAREYAGDSYYTGYTQLDLWGPGTLVTVSS
VL: ALVMTQTPASVSAAVGGTVTINCQASEDLFSSLAWFQQKPGQPPKLLIYSASTLASGVPSRFSGSGSGTEFTLTISDLECADAATYYCLGLYYYLTPDPIYGFGGGTKVVVV
With B3, the “EC50, inhibition” value in experiment [1] amounted to 0.065 ng/mL.

B4: 14B5 chimeric mAb (antibody, V domains shown)
VH: QSVEESGGRLVTPGTPLTLTCAVSGFSLSDYTMIWVRQAPGEGLEWIGIISSSGNTYYATWVKGRFTISKTSTTVDLKMISPTTEDTATYFCARGSGAYISDYFNVWGPGTLVTVSS
VL: FELTQTPSSVEAAVEGTVTIKCQASQSIDSWLSWYQQKPGQPPKLLIYAASKLATGVPSRFSGSGSGTQFTLTIGDLECADAATYYCQSYYDVNAGYGFGGGTEVVVVR
Take B4: the “EC50: concentration necessary to inhibit bioactivity of 50 pg/ml of IL-6” value in experiment [4] worked out at 0.767 ng/mL.

B5: 13A8n-PEG20-31A12c bispecific (bispecific antibody)
scFv 1: DIQLTQSPSFLSASVGDRVTITCQASQSISNELSWYQQKPGKAPKLLIYRASTLTSGVPSRFSGSGSGTEFTLTISSLQPEDFATYYCQQGYNSNDVDNVFGGGTKVEIKGGGGSGGGGSGGGGSGGGGSEVQLVESGGGLVQPGGSLRLSCTVSGIDLSSYDLSWVRQAPGKGLEWVGYIYTDSSTWYANWAKGRFTISRDNSKNTLYLQLNSLRAEDTAVYYCARGSTDYAFDTRLDLWGQGTLVTVSS
scFv 2: DIQLTQSPSFLSASVGDRVTITCQASEDIESYLAWYQQKPGKAPKLLIYSASTLTSGVPSRFSGSGSGTEFTLTISSLQPEDFATYYCLGADDTTTVFGGGTKVEIKGGGGSGGGGSGGGGSGGGGSEVQLVESGGGLVQPGGSLRLSCTASGFSLSSYWLTWVRQAPGKGLEWVGTIATSSTYYASWAKGRFTISRDNSKNTLYLQLNSLRAEDTAVYYCARGLTTDYDLDLWGQGTLVTVSS
modifications: C-terminal azidohomoalanine (Aha) joined through a linear 20 kDa PEG to the Aha of the other scFv; N-terminal azidohomoalanine (Aha) joined through a linear 20 kDa PEG to the Aha of the other scFv
For B5, in experiment [3], the “EC50, neutralization of IL-6, first batch” value was found to be 1.67 ng/mL and the “EC50, neutralization of IL-6, second batch” value was 1.69 ng/mL. Besides, in experiment [4], the “EC50, neutralization of IL-23, first batch” value stood at 4.96 ng/mL and the “EC50, neutralization of IL-23, second batch” value stood at 3.25 ng/mL.

B6: 13A8c-PEG-22H8c bispecific (bispecific antibody)
scFv 1: DIQLTQSPSFLSASVGDRVTITCQASQSISNELSWYQQKPGKAPKLLIYRASTLTSGVPSRFSGSGSGTEFTLTISSLQPEDFATYYCQQGYNSNDVDNVFGGGTKVEIKGGGGSGGGGSGGGGSGGGGSEVQLVESGGGLVQPGGSLRLSCTVSGIDLSSYDLSWVRQAPGKGLEWVGYIYTDSSTWYANWAKGRFTISRDNSKNTLYLQLNSLRAEDTAVYYCARGSTDYAFDTRLDLWGQGTLVTVSS
scFv 2: DIQLTQSPSFLSASVGDRVTITCQSSQTVYKNNLLSWYQQKPGKAPKLLIYLASTLASGVPSRFSGSGSGTEFTLTISSLQPEDFATYYCLGGYDDDADTAFGGGTKVEIKGGGGSGGGGSGGGGSGGGGSEVQLVESGGGLVQPGGSLRLSCTVSGFSLSTYTLNWVRQAPGKGLEWVGAISYDGGTAYANWAKGRFTISRDNSKNTLYLQLNSLRAEDTAVYYCARGFYVYAYIGDAFDPWGQGTLVTVSS
modifications: C-terminal azidohomoalanine (Aha) joined through a 20 kDa PEG to the Aha of the other scFv
For B6, in experiment [3], the “EC50, B9 cell line bioassay” value was found to be 0.246 ng/mL. Further, in experiment [4], the “EC50, mouse splenocyte assay” value came to 0.234 ng/mL.

B7: 13A8c-40KPEG-31A12c bispecific (bispecific antibody)
scFv 1: DIQLTQSPSFLSASVGDRVTITCQASQSISNELSWYQQKPGKAPKLLIYRASTLTSGVPSRFSGSGSGTEFTLTISSLQPEDFATYYCQQGYNSNDVDNVFGGGTKVEIKGGGGSGGGGSGGGGSGGGGSEVQLVESGGGLVQPGGSLRLSCTVSGIDLSSYDLSWVRQAPGKGLEWVGYIYTDSSTWYANWAKGRFTISRDNSKNTLYLQLNSLRAEDTAVYYCARGSTDYAFDTRLDLWGQGTLVTVSS
scFv 2: DIQLTQSPSFLSASVGDRVTITCQASEDIESYLAWYQQKPGKAPKLLIYSASTLTSGVPSRFSGSGSGTEFTLTISSLQPEDFATYYCLGADDTTTVFGGGTKVEIKGGGGSGGGGSGGGGSGGGGSEVQLVESGGGLVQPGGSLRLSCTASGFSLSSYWLTWVRQAPGKGLEWVGTIATSSTYYASWAKGRFTISRDNSKNTLYLQLNSLRAEDTAVYYCARGLTTDYDLDLWGQGTLVTVSS
modifications: C-terminal azidohomoalanine (Aha) joined through a linear 40 kDa PEG to the Aha of the other scFv
Turning to B7, the “EC50, B9 cell line bioassay” value in experiment [3] amounted to 0.138 ng/mL. Further, the “EC50, mouse splenocyte assay” value in experiment [4] is 2.7 ng/mL.

B8: 13A8n-PEG-45G5c bispecific (bispecific antibody)
scFv 1: DIQLTQSPSFLSASVGDRVTITCQASQSISNELSWYQQKPGKAPKLLIYRASTLTSGVPSRFSGSGSGTEFTLTISSLQPEDFATYYCQQGYNSNDVDNVFGGGTKVEIKGGGGSGGGGSGGGGSGGGGSEVQLVESGGGLVQPGGSLRLSCTVSGIDLSSYDLSWVRQAPGKGLEWVGYIYTDSSTWYANWAKGRFTISRDNSKNTLYLQLNSLRAEDTAVYYCARGSTDYAFDTRLDLWGQGTLVTVSS
scFv 2: MADIQLTQSPSFLSASVGDRVTITCQSSQSIYNNNLLSWYQQKPGKAPKLLIYFASTLASGVPSRFSGSGSGTEFTLTISSLQPEDFATYYCLGGYDDDADTAFGGGTKVEIKGGGGSGGGGSGGGGSGGGGSEVQLVESGGGLVQPGGSLRLSCTVSGFSLSVYAINWVRQAPGKGLEWVGIINDVDDTAYSAWAKGRFTISRDNSKNTLYLQLNSLRAEDTAVYYCARGYLSYAYAGDAFDPWGQGTLVTVSSGM
modifications: C-terminal azidohomoalanine (Aha) joined through a 20 kDa PEG to the Aha of the other scFv; N-terminal azidohomoalanine (Aha) joined through a 20 kDa PEG to the Aha of the other scFv
Consider B8, for which the “EC50, B9 cell line bioassay” value in experiment [3] was determined as 0.933 ng/mL. In experiment [4], the “EC50, mouse splenocyte assay” value is 5.66 ng/mL.

B9: 28D2 N-Aha (scFv)
scFv: MEDIQLTQSPSFLSASVGDRVTITCQASEDLFSSLAWYQQKPGKAPKLLIYSASTLASGVPSRFSGSGSGTDFTLTISSLQPEDFATYYCLGLYYYLTPDPIYGFGGGTKVEIKGGGGSGGGGSGGGGSGGGGSEVQLVESGGGLVQPGGSLRLSCTVSGLSLSKNAIAWVRQAPGKGLEWVGIIYAGGATTYASWAKGRFTISRDNSKNTLYLQLNSLRAEDTAVYYCAREYAGDSYYTGYTQLDLWGQGTLVTVSSGPPPPPHHHHHH
modifications: azidohomoalanine (Aha) in place of the single Met, at the N terminus
notes: also called E. coli 28D2 scFv with Aha at the N term
With B9, in experiment [5], the Kd turned out to be 62 pM, the koff was 8.99e-05 s⁻¹ and the kon was 1.46e+06 M⁻¹ s⁻¹.

B10: 28D2-L Aha (scFv)
scFv: MADIQLTQSPSFLSASVGDRVTITCQASEDLFSSLAWYQQKPGKAPKLLIYSASTLASGVPSRFSGSGSGTDFTLTISSLQPEDFATYYCLGLYYYLTPDPIYGFGGGTKVEIKGGGGSGMGGSGGGGSGGGGSEVQLVESGGGLVQPGGSLRLSCTVSGLSLSKNAIAWVRQAPGKGLEWVGIIYAGGATTYASWAKGRFTISRDNSKNTLYLQLNSLRAEDTAVYYCAREYAGDSYYTGYTQLDLWGQGTLVTVSSGPPPPPHHHHHH
modifications: azidohomoalanine (Aha) in place of a single Met in the Gly/Ser linker between VL and VH
notes: also called E. coli 28D2 scFv with Aha in the Gly/Ser linker
Regarding B10, in experiment [5], binding was characterised by a dissociation constant (Kd) of 53 pM, the koff turned out to be 6.88e-05 s⁻¹ and the kon turned out to be 1.3e+06 M⁻¹ s⁻¹.

(Values after patent US20160194391A1 (AstraZeneca / MedImmune, published 2016).)
